Assays:
[1] = target: T1, SARS-CoV-2 spike (S) protein on authentic SARS-CoV-2 virus (strain WA1/2020) (SARS-CoV-2, UniProt P0DTC2 14-1273); assay: cell-based or functional assay
[2] = target: T2, SRBD subdomain of SARS-CoV-2 S protein (SARS-CoV-2, UniProt P0DTC2 319-541); assay: ELISA, purified IgG
SARS-CoV-2 NTD = target: T3, SARS-CoV-2 NTD (SARS-CoV-2, UniProt P0DTC2 14-305); assay: ELISA, purified IgG
T3 construct: domain: NTD

[3] = target: T2, SRBD subdomain of SARS-CoV-2 S protein; assay: ELISA on coated SRBD
[4] = target: T1, SARS-CoV-2 spike (S) protein on …; assay: cell-based or functional assay; remark: listed apart in the source

B1: COV2-2961 (antibody, V domains shown)
VH: EVQLVQSGPEVKKPGTSVKVSCKASGFTFMSSAVQWVRQARGQRLEWIGWIVIGSGNTNYAQKFQERVTITRDMSTSTAYMELSSLRSEDTAVYYCAAPYCSSISCNDGFDIWGQGTMVTVSS
VL: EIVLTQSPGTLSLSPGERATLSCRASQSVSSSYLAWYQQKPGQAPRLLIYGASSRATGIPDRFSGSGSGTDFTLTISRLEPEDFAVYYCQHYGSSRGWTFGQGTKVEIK
In the case of B1, the “SARS-CoV-2 focus reduction test, IC50” value [1] is reported as 0.03 µg/mL.

B2: COV2-2098 (antibody, V domains shown)
VH: EVQLLESGGGLIQPGGSLRLSCAASGFTFSNYAMSWVRQAPGKGLEWVSGIISTSGGATYNADSVRGRFTTSRDNSKNILYLQMNSLRGEDTAVYYCVKGLFDWFPLWGQGTMVTVSS
VL: DIVMTQSPATLSVSPGERAILSCRASQSVRSNLAWYQQKPGQAPRLLISGASTRATAIPARFSGSGSGTEFTLTITSLQSEDCAVYYCHQYNNWPQTFGQGTKVEIK
In the case of B2, the “OD 450 nm” value [2] is reported as 4.2 OD 450 nm, the “OD 450 nm” value (SARS-CoV-2 NTD) is reported as 0.15 OD 450 nm and the EC50 [3] is reported as 0.0007 µg/mL. For the same binder, the “Nano-luciferase virus reduction test, SARS-CoV-2, IC50” value (from here on “Nano-luciferase virus reduction test”) [1] was < 0.1 µg/mL, the “SARS-CoV-2 focus reduction test, IC50” value [1] was 0.776 µg/mL and the “Neutralization IC50 (FRNT, authentic SARS-CoV-2 WA1/2020)” value (“Neutralization IC50” for short) [4] was 1.03 µg/mL.

B3: COV2-2082 (antibody, V domains shown)
VH: EVQLVESGGGVVRPGGSLRLSCAASGFIFDDYDMTWVRQAPGKGLEWVSGISWNGGNTGYADSVKGRFTISRDNAKNSLYLQMNSLRAEDTALYHCAVIMSPIPRYSGYDWAGGAFDIWGQGTMVTVSS
VL: SSELTQDPAVSVALGQTVRITCQGDSLRSYYASWYQQKPGQVPILVIYDKNNRPSGIPDRFSGSSSGNTASLTITGAQAEDEADYYCNSRDSSGNAVVFGGGTKLTVL
With B3 the “OD 450 nm” value [2] was 4.3 OD 450 nm, the “OD 450 nm” value (SARS-CoV-2 NTD) was 0.11 OD 450 nm and the EC50 [3] was 0.0006 µg/mL. For the same binder, the “Nano-luciferase virus reduction test” value [1] was < 0.2 µg/mL, the “SARS-CoV-2 focus reduction test, IC50” value [1] was 0.302 µg/mL and the “Neutralization IC50” value [4] was 0.204 µg/mL.

B4: COV2-2068 (antibody, V domains shown)
VH: EVQLVESGGGLVQPGGSLRLSCAASGFTVSSNYMSWVRQAPGKGLEWVSVIYPGGSAFYADSVKGRFTISRHNSNNTLCLQMNSLRTEDTAVYYCARSYDILTGYRDAFDIWGQGTMVTVSS
VL: QSVLTQPPSVSGAPGQRVTISCTGSSSNIGSGSDVHWYQQLPGTAPKLLIYGNTNRPSGVPDRFSGSKSGTSASLAITGLQAEDEADYYCQSYDSRLSGFVVFGGGTKLTVL
B4 was tested, and the “OD 450 nm” value [2] was 4.3 OD 450 nm, the “OD 450 nm” value (SARS-CoV-2 NTD) was 0.1 OD 450 nm and the EC50 [3] was 0.0012 µg/mL. For the same binder, the “Nano-luciferase virus reduction test” value [1] was < 0.3 µg/mL, the “SARS-CoV-2 focus reduction test, IC50” value [1] was 0.864 µg/mL and the “Neutralization IC50” value [4] was 0.478 µg/mL.

B5: COV2-2050 (antibody, V domains shown)
VH: QVQLVQSGAEVKKPGASVKVSCKASGYTFTDYYMHWVRQAPGQGLEWMGWINPNSRGTNYAQKFQGRVTMTRDTSISTVYMELSRLTSDDTAVYYCARVVVLGYGRPNNYYDGRNVWDYWGQGTLVTVSS
VL: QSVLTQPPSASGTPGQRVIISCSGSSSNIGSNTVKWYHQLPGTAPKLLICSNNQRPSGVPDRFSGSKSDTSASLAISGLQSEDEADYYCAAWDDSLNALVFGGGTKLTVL
With B5 the “OD 450 nm” value [2] was 4.3 OD 450 nm, the “OD 450 nm” value (SARS-CoV-2 NTD) was 0.12 OD 450 nm and the EC50 [3] was 0.0016 µg/mL. The “Nano-luciferase virus reduction test” value [1] was < 0.05 µg/mL, the “SARS-CoV-2 focus reduction test, IC50” value [1] was 0.025 µg/mL and the “Neutralization IC50” value [4] was 0.08 µg/mL.

B6: COV2-2113 (antibody, V domains shown)
VH: EVQLVESGGGLIQPGGSLRLSCAASEVTVSSNYMSWVRQAPGKGLEWVSLIYSGGTTYYADSVKGRFTISRDNSKNTLYLQMNSLRAEDTAVYYCARDFLRWHDLWGQGTLVTVSS
VL: DIQMTQSPSSLSASVGDRVTITCQASQDINNYLNWYQQKPGKAPKLLIYDASNLETGVPLRFSGSGSGTDFIFTISSLQPEDIATYYCQQYDNLPPVFGGGTKVEIK
For B6, the “OD 450 nm” value [2] was 4.4 OD 450 nm, the EC50 [3] was 0.0006 µg/mL and the “Nano-luciferase virus reduction test” value [1] was < 0.3 µg/mL. For the same binder, the “SARS-CoV-2 focus reduction test, IC50” value [1] was 0.427 µg/mL and the “Neutralization IC50” value [4] was 1.04 µg/mL.

B7: COV2-2132 (antibody, V domains shown)
VH: EVQLVESGGGLIQPGGSLRLSCAASEVTVSSNYMSWVRQAPGKGLEWVSLIYSGGTTYYADSVKGRFTISRDNSKNTLYLQMNSLRAEDTAVYYCARDFLRWHDLWGQGTLVTVSS
VL: DIQMTQSPSSLSASVGDRVTITCQASQDINNYLNWYQQKPGKAPKLLIYDASNLETGVPLRFSGSGSGTDFTFTISSLQPEDIATYYCQQYDNLPPVFGGGTKVEIK
With B7 the “OD 450 nm” value (SARS-CoV-2 NTD) was 0.15 OD 450 nm, the “Nano-luciferase virus reduction test” value [1] was < 0.3 µg/mL and the “SARS-CoV-2 focus reduction test, IC50” value [1] was 0.673 µg/mL.

B8: COV2-2103 (antibody, V domains shown)
VH: EVQLVESGGGLVQPGGSLRLSCAASGFTFSRHWMTWVRQAPGKGLEWVANIKQDGSEKYYVDSVKGRLTISRDNAKNSLYLQMNSLRAEDTAVYYCARLGFYYGGADYWGQGTLVTVSS
VL: NFMLTQPHSVSESPGKTVTISCTGSSGSIASNYVQWYQQRPGSAPTTVISEDNQRPSGVPDRFSGSIDSSSNSASLTISGLKTEDEADYYCQSYDGINRAWVFGGGTKLTVL
B8 was tested, and the “OD 450 nm” value [2] was 4.3 OD 450 nm, the “OD 450 nm” value (SARS-CoV-2 NTD) was 0.12 OD 450 nm and the EC50 [3] was 0.0011 µg/mL. The “SARS-CoV-2 focus reduction test, IC50” value [1] was > 1 µg/mL and the “Neutralization IC50” value [4] was 1.97 µg/mL.

B9: COV2-2046 (antibody, V domains shown)
VH: EVQLVESGGGLVQPGRSLRLSCAASGFTFDDYAMHWVRQAPGKGLEWVSGISWNSGSIAYTDSVKGRFTISRDNAKNSLYLQMNSLRAEDTALYYCAKAHSTGHQYYYGMDVWGQGTTVTVSS
VL: DIQMTQSPSSLSASVGDRVTITCRASQSISSFLNWYQQKPGKAPKLLIYAAFNLQSGVPSRFSGSGSGTDFTLTISSLQSEDFATYYCQQSYNTPYTFGQGTKLEIK
With B9 the “OD 450 nm” value (SARS-CoV-2 NTD) was 0.09 OD 450 nm, the “Nano-luciferase virus reduction test” value [1] was < 0.1 µg/mL and the “SARS-CoV-2 focus reduction test, IC50” value [1] was 0.171 µg/mL.

— patent US20230122364A1 (VANDERBILT UNIVERSITY, published 2023)
